Reference: patent US12215162B2, “BAFF-R targeted chimeric antigen receptor-modified T-cells and uses thereof” (CITY OF HOPE, priority 2016, dated 2025)

B1: Humanized HC1 + LC2: humanized C90 variant, heavy chain variant 1 with light chain variant 2 (antibody, V domains shown)
VH: QVQLQESGPGLVKPSQTLSLTCTVSGDSITSGYWNWIRQHPGKGLEYIGYISYSGSTYYNPSLKSRVTISRDTSKNQFSLKLSSVTAADTAVYYCASPNYPFYAMDYWGQGTLVTVSS
VL: DIVLTQSPATLSLSPGERATLSCRASESVDNYGISFMNWFQQKPGQAPRLLIYAASNRATGIPARFSGSGSGTDFTLTISSLEPEDFAVYYCQQSKEVPWTFGGGTKVEIKRTV
B2: Humanized HC1 + LC3: humanized C90 variant, heavy chain variant 1 with light chain variant 3 (antibody, V domains shown)
VH: QVQLQESGPGLVKPSQTLSLTCTVSGDSITSGYWNWIRQHPGKGLEYIGYISYSGSTYYNPSLKSRVTISRDTSKNQFSLKLSSVTAADTAVYYCASPNYPFYAMDYWGQGTLVTVSS
VL: DIVMTQSPSSLSASVGDRVTITCRASESVDNYGISFMNWFQQKPGKAPKLLIYAASNLGSGVPSRFSGSGSGTDFTLTISSLQPEDFATYYCQQSKEVPWTFGQGTKVEIKRTV
B3: Humanized HC2 + LC1 (antibody, V domains shown)
VH: EVQLQESGPGLVKPSQTLSLTCTVSGDSITSGYWNWIRQHPGKGLEYIGYISYSGSTYYNPSLKSRVTISRDTSKNQYSLKLSSVTAADTAVYYCASPNYPFYAMDYWGQGTLVTVSS
VL: EIVLTQSPATLSLSPGERATLSCRASESVDNYGISFLNWFQQKPGQAPRLLIYAASNRATGIPARFSGSGSGTDFTLTISSLEPEDFAVYYCQQSKEVPWTFGGGTKVEIKRTV
B4: Humanized HC3 + LC1 (antibody, V domains shown)
VH: EVQLQESGPGLVKPSETLSLTCSVSGDSITSGYWNWIRQPPGKGLEYIGYISYSGSTYYNPSLKSRVTISRDTSKNQYSLRLSSVTAADTALYYCASPNYPFYAMDYWGQGTRVTVSS
VL: EIVLTQSPATLSLSPGERATLSCRASESVDNYGISFLNWFQQKPGQAPRLLIYAASNRATGIPARFSGSGSGTDFTLTISSLEPEDFAVYYCQQSKEVPWTFGGGTKVEIKRTV
B5: Humanized HC3 + LC2: humanized C90 variant, heavy chain variant 3 with light chain variant 2 (antibody, V domains shown)
VH: EVQLQESGPGLVKPSETLSLTCSVSGDSITSGYWNWIRQPPGKGLEYIGYISYSGSTYYNPSLKSRVTISRDTSKNQYSLRLSSVTAADTALYYCASPNYPFYAMDYWGQGTRVTVSS
VL: DIVLTQSPATLSLSPGERATLSCRASESVDNYGISFMNWFQQKPGQAPRLLIYAASNRATGIPARFSGSGSGTDFTLTISSLEPEDFAVYYCQQSKEVPWTFGGGTKVEIKRTV
B6: Humanized HC3 + LC3: humanized C90 variant, heavy chain variant 3 with light chain variant 3 (antibody, V domains shown)
VH: EVQLQESGPGLVKPSETLSLTCSVSGDSITSGYWNWIRQPPGKGLEYIGYISYSGSTYYNPSLKSRVTISRDTSKNQYSLRLSSVTAADTALYYCASPNYPFYAMDYWGQGTRVTVSS
VL: DIVMTQSPSSLSASVGDRVTITCRASESVDNYGISFMNWFQQKPGKAPKLLIYAASNLGSGVPSRFSGSGSGTDFTLTISSLQPEDFATYYCQQSKEVPWTFGQGTKVEIKRTV
B7: Humanized HC1 + LC1 (antibody, V domains shown)
VH: QVQLQESGPGLVKPSQTLSLTCTVSGDSITSGYWNWIRQHPGKGLEYIGYISYSGSTYYNPSLKSRVTISRDTSKNQFSLKLSSVTAADTAVYYCASPNYPFYAMDYWGQGTLVTVSS
VL: EIVLTQSPATLSLSPGERATLSCRASESVDNYGISFLNWFQQKPGQAPRLLIYAASNRATGIPARFSGSGSGTDFTLTISSLEPEDFAVYYCQQSKEVPWTFGGGTKVEIKRTV

Molecular target: T1, recombinant extracellular domain of human BAFF-R (Homo sapiens, UniProt Q96RJ3)
T1 construct: The antigen was commercial, recombinant extracellular domain of human BAFF-R; purchased
Experiment: Biacore analysis of binding affinity of humanized BAFF-R antibody variants
Text: The chimeric antibody, clone 90, was humanized while retaining its binding specificity and cytotoxic effects. Through computational analysis of the CDRs and predicted structure, three variants of the heavy and three variants of the light chain were produced with varying degrees of likeness to human antibodies. A total of nine combinational variants was constructed from the humanized heavy and light chains.
The chimeric anti-BAFF-R antibody C90 was humanized with several variants. The humanization process took into consideration and analysis of the variable region and specifically the CDRs of the chimeric antibody. From there, three variants for each heavy and light chain was developed with varying degrees of human-likeness ranging from 1 the most human to 3 the most conservative to the chimeric. The variants were combined to produce 9 variants. Biacore analysis was performed on each variant as well as the chimeric parental C90 to determine their equilibrium dissociation constant KD. The antigen was commercial, recombinant extracellular domain of human BAFF-R.

Molecule	kdis [s⁻¹]	kon [M⁻¹ s⁻¹]
B1	0.0023	620000
B2	0.0021	410000
B3	0.002	770000
B4	0.0031	820000
B5	0.0037	1.2e+06
B6	0.0023	680000
B7	0.0024	610000
